This note sets out measurements from PMC8463545 (2021).

Assay [1] concerns the target T1, RpfG-MBP (Lysobacter enzymogenes).
T1 chain: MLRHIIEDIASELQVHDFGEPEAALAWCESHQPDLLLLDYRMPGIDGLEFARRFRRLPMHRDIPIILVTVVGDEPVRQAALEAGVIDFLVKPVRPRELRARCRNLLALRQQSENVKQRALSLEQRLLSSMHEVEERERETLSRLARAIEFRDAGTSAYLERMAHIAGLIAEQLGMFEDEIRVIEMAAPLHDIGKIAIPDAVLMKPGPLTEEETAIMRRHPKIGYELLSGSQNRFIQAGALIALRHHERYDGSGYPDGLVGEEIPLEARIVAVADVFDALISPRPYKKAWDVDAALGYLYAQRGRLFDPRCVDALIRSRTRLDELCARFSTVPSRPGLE
Description: SPR. A general note: Surface plasmon resonance follows binding to a sensor surface in real time, without labels.

In assay [2] the target is T1, RpfG-MBP. The assay can be described thus: SPR.

B1: HtsH2C-HA-His (domain or fragment)
chain: not shown
modifications: Phosphorylated as purified (CIAP-sensitive). Primers give (M)AKTRFL... to ...DAADAP (C-terminus). The candidate lists no features, so the start is estimated from the paralogues' fragment lengths and may be off by a few residues. Assignment of this entry to HtsH2 is inferred. The entry is probably not from strain OH11.
In the case of B1, the koff – broadly, the rate constant with which the complex falls apart – with RpfG-MBP [1] amounted to 0.00129 s⁻¹. In the assay with RpfG-MBP [2], this molecule gave a Ka of 3.34e+06 M⁻¹.

B2: HtsH1C-Flag-His (domain or fragment)
chain: not shown
modifications: Phosphorylated as purified (CIAP-sensitive). Limits from the expression primers: (M)AKTRFL... to ...LFEREA, just before the His-kinase domain to the C-terminus. The start codon Met and Flag/His tags are left out. Positions are inferred from the candidate's domain features. The entry is probably not from strain OH11.
The molecule B2 gave a koff with RpfG-MBP [1] of 0.00118 s⁻¹. This molecule also showed a Ka with RpfG-MBP [2] of 1.5e+07 M⁻¹.

B3: HtsH3C-Myc-His (domain or fragment)
chain: not shown
modifications: Phosphorylated as purified (CIAP-sensitive). Primers give (M)AKTRFL... to ...ARRGEG (C-terminus). Positions are inferred from the candidate's His-kinase domain start. Assignment of this entry to HtsH3 is inferred. The entry is probably not from strain OH11.
On to B3, for which, in the assay with RpfG-MBP [1], the koff came out at 0.000738 s⁻¹. The Ka with RpfG-MBP [2] was 5.96e+06 M⁻¹.
